In the experiment the target is afucosylated IgG-specific nanobody X0. Nature of the experiment: SPR. The settings on record: parent: est. 0; read off a plot.

afucosylated IgG1 Fc P329A: the other: log2 fold change in KD stood at 0.03 log2. Under afucosylated IgG1 Fc H268A stands -1.5 log2; under afucosylated IgG1 Fc E269A, 0.95 log2; under afucosylated IgG1 Fc I332A, 0.08 log2. The same measure for afucosylated IgG1 Fc L328A: -0.15 log2.

Source of the values: article PMC10195009.
